Here are results for 2 molecules from patent US20110195494A1 (Boehringer Ingelheim, published 2011).

The target in assay [1] is T1, full length human DLL4 on overexpressing CHO or HEK293 cells (human, UniProt Q9NR61 27-685).
T1 construct: also called CHO-hDLL4; HEK293-hDII4
As to the kind of experiment: FMAT competition: labelled hNotch1/Fc on CHO-hDLL4 cells. An excerpt: (§1) All calculations are based on the FL1 total signal which comprises the average of the fluorescence per well times the number of counts per well.

For assay [2], the target named is T2, full length mouse DLL4 on overexpressing CHO or HEK293 cells (mouse, UniProt Q9JI71 27-686).
T2 construct: whole, on cells; also called CHO-mDLL4; mDLL4
The experiment in a line: FMAT competition: labelled hNotch1/Fc on CHO-mDLL4 cells.
Excerpt: as §1

T2 sequence (Q9JI71 27-686): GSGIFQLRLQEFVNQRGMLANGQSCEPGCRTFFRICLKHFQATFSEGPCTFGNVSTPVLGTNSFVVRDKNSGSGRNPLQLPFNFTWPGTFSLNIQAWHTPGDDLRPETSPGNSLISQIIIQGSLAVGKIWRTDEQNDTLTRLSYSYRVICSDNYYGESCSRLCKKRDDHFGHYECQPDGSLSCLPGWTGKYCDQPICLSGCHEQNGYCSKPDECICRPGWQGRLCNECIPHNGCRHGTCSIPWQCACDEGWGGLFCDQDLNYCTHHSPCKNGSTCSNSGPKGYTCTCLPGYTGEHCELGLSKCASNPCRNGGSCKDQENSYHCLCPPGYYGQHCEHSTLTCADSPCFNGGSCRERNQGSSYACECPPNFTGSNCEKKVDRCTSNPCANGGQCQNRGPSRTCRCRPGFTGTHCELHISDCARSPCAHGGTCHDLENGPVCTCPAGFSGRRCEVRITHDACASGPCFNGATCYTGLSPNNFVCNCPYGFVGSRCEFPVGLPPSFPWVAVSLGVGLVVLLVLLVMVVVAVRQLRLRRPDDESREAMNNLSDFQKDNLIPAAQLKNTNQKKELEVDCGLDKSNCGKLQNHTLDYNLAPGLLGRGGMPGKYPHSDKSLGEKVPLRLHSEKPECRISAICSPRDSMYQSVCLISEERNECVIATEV
T1 sequence (Q9NR61 27-685 limits assumed): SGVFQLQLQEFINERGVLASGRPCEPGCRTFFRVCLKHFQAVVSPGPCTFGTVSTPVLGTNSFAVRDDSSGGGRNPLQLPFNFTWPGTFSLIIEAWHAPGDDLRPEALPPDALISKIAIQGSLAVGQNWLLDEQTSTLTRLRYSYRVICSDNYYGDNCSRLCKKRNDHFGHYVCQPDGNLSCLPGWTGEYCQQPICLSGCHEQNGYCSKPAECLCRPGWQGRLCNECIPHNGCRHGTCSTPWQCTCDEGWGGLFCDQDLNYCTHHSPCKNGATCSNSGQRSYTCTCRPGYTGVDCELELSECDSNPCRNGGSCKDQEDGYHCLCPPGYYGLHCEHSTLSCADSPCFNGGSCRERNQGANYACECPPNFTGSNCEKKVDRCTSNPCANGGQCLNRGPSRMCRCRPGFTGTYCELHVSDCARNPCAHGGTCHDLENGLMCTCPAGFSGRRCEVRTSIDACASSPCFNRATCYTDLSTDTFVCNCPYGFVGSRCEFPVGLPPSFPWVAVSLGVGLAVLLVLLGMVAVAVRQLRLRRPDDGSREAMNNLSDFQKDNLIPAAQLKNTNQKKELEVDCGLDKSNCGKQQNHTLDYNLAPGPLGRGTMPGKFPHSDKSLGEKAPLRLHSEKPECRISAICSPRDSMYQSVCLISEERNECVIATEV

B1: 83G04 (VHH)
VHH: EVQLVESGGGLVKPGGSLRLSCAASGRTLYIMGWYRQAPGKEREFVAGISRYGDITYAADSVKGRFTISRDSVKNTVYLRMNSLKPDDTAVYYCAANGGYCSGYGCYEDSGQYDYWGQGTQVTVSS
notes: also called DLLBII83G04
For B1, the binding result in assay [1] was “binds”. Also, the “IC50 (read off the curve)” value in assay [2] is approximately 40 nM.

B2: 78B03 (VHH)
VHH: EVQLVESGGGLVQAGGSLRLSCAASGRTFSNYIMGWFRQAPGKEREFVAGISRYGDYTAYADSVKGRFTISRDNVKNTVYLRMNSLKPDDTAVYYCAANEGYCSGYGCYEDSGQYDYWGQGTQVTVSS
notes: also called DLLBII78B03
As for B2, the binding result in assay [1] and in assay [2] was “binds” throughout.
